The record followed here is article PMC12102759 (2025).

B1: PEX5 peptide 110-125 (Peroxisomal targeting signal 1 receptor), 16-mer library wild type / PEX14 Pex14 (PEX14 PEX14, residues 16-84) (parent complex)
chain 1: ADLALSENWAQEFLAA
chain 2: TPGSENVLPREPLIATAVKFLQNSRVRQSPLATRRAFLKKKGLTDEEIDMAFQQSGTAADEPSSLGPAT
B2: RNF115 peptide 67-82 (E3 ubiquitin-protein ligase RNF115), 16-mer library wild type / MDM2 SWIB (MDM2 SWIB/MDM2 domain, residues 17-125) (parent complex)
chain 1: TTTHFAELWGHLDHTM
chain 2: SQIPASEQETLVRPKPLLLKLLKSVGAQKDTYTMKEVLFYLGQYIMTKRLYDEKQQHIVYCSNDLLGDLFGVPSFSVKEHRKIYTMIYRNLVVVNQQESSDSGTSVSEN

One experiment covers variants of B1. Kind of experiment: proteomic peptide phage display deep mutational scan (ProP-PD DMS): M13 P8 16-mer library selected against immobilised GST-tagged bait for four days (rounds), NGS of the eluted pools per day and pseudo-replica; bait immobilised on MaxiSorp plates (10 µg), library pre-cleared on GST, 2 h binding at 4 °C, five washes; one round per day, days 1-4; value from days 2 and 3.
Consider chain 1 ADLALSENWAHEFLAA [chain 1 Q11H], for which the screen value is 0.00141 average fractional NGS count over selection days 2 and 3 (reads of this peptide / all reads for the bait, averaged over …. For chain 1 ADLALSENWALEFLAA [chain 1 Q11L], the screen value is 0.00081 average fractional NGS count over selection days 2 and 3 (reads of this peptide / all reads for the bait, averaged over ….

Take chain 1 ALLALSENWAQEFLAA [chain 1 D2L]: the screen value is 0.000809 average fractional NGS count over selection days 2 and 3 (reads of this peptide / all reads for the bait, averaged over …. As to chain 1 APLALSENWAQEFLAA [chain 1 D2P], the screen value is 0.00139 average fractional NGS count over selection days 2 and 3 (reads of this peptide / all reads for the bait, averaged over ….

For chain 1 AYLALSENWAQEFLAA [chain 1 D2Y], the screen value is 0.000446 average fractional NGS count over selection days 2 and 3 (reads of this peptide / all reads for the bait, averaged over …. The same measure, in the same setting: next, chain 1 ADLALNENWAQEFLAA [chain 1 S6N]: 0.000624 average fractional NGS count over selection days 2 and 3 (reads of this peptide / all reads for the bait, averaged over …; chain 1 ADLALRENWAQEFLAA [chain 1 S6R]: 0.00161 average fractional NGS count over selection days 2 and 3 (reads of this peptide / all reads for the bait, averaged over ….

With chain 1 ADLALEENWAQEFLAA [chain 1 S6E], the screen value was 0.00164 average fractional NGS count over selection days 2 and 3 (reads of this peptide / all reads for the bait, averaged over ….

In the case of chain 1 ADLALGENWAQEFLAA [chain 1 S6G], the screen value is 0.000749 average fractional NGS count over selection days 2 and 3 (reads of this peptide / all reads for the bait, averaged over …. On to chain 1 ADLALFENWAQEFLAA [chain 1 S6F], for which the screen value was 0.00174 average fractional NGS count over selection days 2 and 3 (reads of this peptide / all reads for the bait, averaged over …. For the variant chain 1 ADLALHENWAQEFLAA [chain 1 S6H], the screen value is 0.00186 average fractional NGS count over selection days 2 and 3 (reads of this peptide / all reads for the bait, averaged over ….

For chain 1 ADLALSEDWAQEFLAA [chain 1 N8D], the screen value is 0.00107 average fractional NGS count over selection days 2 and 3 (reads of this peptide / all reads for the bait, averaged over …. For the variant chain 1 ADLALSEPWAQEFLAA [chain 1 N8P], the screen value is 0.000567 average fractional NGS count over selection days 2 and 3 (reads of this peptide / all reads for the bait, averaged over ….

As for chain 1 ADLALSENWAQHFLAA [chain 1 E12H], the screen value is 0.00205 average fractional NGS count over selection days 2 and 3 (reads of this peptide / all reads for the bait, averaged over …. On the same count and under the same terms, next, chain 1 ADLALSENWAQWFLAA [chain 1 E12W]: 0.0033 average fractional NGS count over selection days 2 and 3 (reads of this peptide / all reads for the bait, averaged over …. In the case of chain 1 ADLALSENWAQVFLAA [chain 1 E12V], the screen value is 0.00245 average fractional NGS count over selection days 2 and 3 (reads of this peptide / all reads for the bait, averaged over …. The same measure, in the same setting: next, chain 1 ADLALSENWAQPFLAA [chain 1 E12P]: 0.000686 average fractional NGS count over selection days 2 and 3 (reads of this peptide / all reads for the bait, averaged over …; chain 1 ADLALSENWAQEFKAA [chain 1 L14K]: 0.000342 average fractional NGS count over selection days 2 and 3 (reads of this peptide / all reads for the bait, averaged over …. Still for that read-out and setting: as for chain 1 ADLALSENWAQEFQAA [chain 1 L14Q], the figure is 0.000996 average fractional NGS count over selection days 2 and 3 (reads of this peptide / all reads for the bait, averaged over ….

As to chain 1 ADLAHSENWAQEFLAA [chain 1 L5H], the screen value is 0.00347 average fractional NGS count over selection days 2 and 3 (reads of this peptide / all reads for the bait, averaged over …. Same read-out and setting: next, chain 1 ADLALSYNWAQEFLAA [chain 1 E7Y]: 0.00176 average fractional NGS count over selection days 2 and 3 (reads of this peptide / all reads for the bait, averaged over …; chain 1 ADLALSFNWAQEFLAA [chain 1 E7F]: 0.000467 average fractional NGS count over selection days 2 and 3 (reads of this peptide / all reads for the bait, averaged over …. Take chain 1 ADLALSNNWAQEFLAA [chain 1 E7N]: the screen value was 0.00129 average fractional NGS count over selection days 2 and 3 (reads of this peptide / all reads for the bait, averaged over …. On the same count and under the same terms, next, chain 1 ADLALSPNWAQEFLAA [chain 1 E7P]: 0.00244 average fractional NGS count over selection days 2 and 3 (reads of this peptide / all reads for the bait, averaged over …; chain 1 ADNALSENWAQEFLAA [chain 1 L3N]: 0.000429 average fractional NGS count over selection days 2 and 3 (reads of this peptide / all reads for the bait, averaged over …. Same read-out and setting: next, chain 1 ADQALSENWAQEFLAA [chain 1 L3Q]: 0.00182 average fractional NGS count over selection days 2 and 3 (reads of this peptide / all reads for the bait, averaged over …; chain 1 ADAALSENWAQEFLAA [chain 1 L3A]: 0.00097 average fractional NGS count over selection days 2 and 3 (reads of this peptide / all reads for the bait, averaged over …. Regarding chain 1 ADLALSENWWQEFLAA [chain 1 A10W], the screen value is 0.00181 average fractional NGS count over selection days 2 and 3 (reads of this peptide / all reads for the bait, averaged over …. Still for that read-out and setting: next, chain 1 ADLALSENWTQEFLAA [chain 1 A10T]: 0.000469 average fractional NGS count over selection days 2 and 3 (reads of this peptide / all reads for the bait, averaged over …; chain 1 ADLALSENWYQEFLAA [chain 1 A10Y]: 0.0104 average fractional NGS count over selection days 2 and 3 (reads of this peptide / all reads for the bait, averaged over …. On to chain 1 ADLALSENWAQERLAA [chain 1 F13R], for which the screen value is 0.000386 average fractional NGS count over selection days 2 and 3 (reads of this peptide / all reads for the bait, averaged over ….

With chain 1 ADLALSENWAQEHLAA [chain 1 F13H], the screen value is 0.00342 average fractional NGS count over selection days 2 and 3 (reads of this peptide / all reads for the bait, averaged over ….

Another experiment covers variants of B2. The experiment is described as above.
As to chain 1 D13S, the screen value was 0.00426 average fractional NGS count over selection days 2 and 3 (reads of this peptide / all reads for the bait, averaged over ….

Consider chain 1 D13A, for which the screen value is 0.00127 average fractional NGS count over selection days 2 and 3 (reads of this peptide / all reads for the bait, averaged over ….

With chain 1 D13T, the screen value is 0.0095 average fractional NGS count over selection days 2 and 3 (reads of this peptide / all reads for the bait, averaged over ….

As for chain 1 D13N, the screen value was 0.000525 average fractional NGS count over selection days 2 and 3 (reads of this peptide / all reads for the bait, averaged over …. For the variant chain 1 D13P, the screen value is 0.00074 average fractional NGS count over selection days 2 and 3 (reads of this peptide / all reads for the bait, averaged over …. Same read-out and setting: next, chain 1 D13R: 0.000392 average fractional NGS count over selection days 2 and 3 (reads of this peptide / all reads for the bait, averaged over …; chain 1 D13W: 0.000615 average fractional NGS count over selection days 2 and 3 (reads of this peptide / all reads for the bait, averaged over …; chain 1 D13F: 0.00274 average fractional NGS count over selection days 2 and 3 (reads of this peptide / all reads for the bait, averaged over …. Turning to chain 1 D13G, the screen value was 0.00549 average fractional NGS count over selection days 2 and 3 (reads of this peptide / all reads for the bait, averaged over …. The same measure, in the same setting: as for chain 1 D13V, the figure is 0.0143 average fractional NGS count over selection days 2 and 3 (reads of this peptide / all reads for the bait, averaged over …; as for chain 1 D13H, 0.000247 average fractional NGS count over selection days 2 and 3 (reads of this peptide / all reads for the bait, averaged over …; as for chain 1 D13M, 0.00561 average fractional NGS count over selection days 2 and 3 (reads of this peptide / all reads for the bait, averaged over …. Turning to chain 1 D13Q, the screen value was 0.00218 average fractional NGS count over selection days 2 and 3 (reads of this peptide / all reads for the bait, averaged over …. For chain 1 L12M, the screen value is 0.000189 average fractional NGS count over selection days 2 and 3 (reads of this peptide / all reads for the bait, averaged over …. Same read-out and setting: as for chain 1 L12I, the figure is 0.000166 average fractional NGS count over selection days 2 and 3 (reads of this peptide / all reads for the bait, averaged over …; as for chain 1 H11K, 0.000921 average fractional NGS count over selection days 2 and 3 (reads of this peptide / all reads for the bait, averaged over …; as for chain 1 H11T, 0.00102 average fractional NGS count over selection days 2 and 3 (reads of this peptide / all reads for the bait, averaged over ….

Regarding chain 1 H11Q, the screen value was 0.00312 average fractional NGS count over selection days 2 and 3 (reads of this peptide / all reads for the bait, averaged over …. Same read-out and setting: next, chain 1 H11M: 0.00257 average fractional NGS count over selection days 2 and 3 (reads of this peptide / all reads for the bait, averaged over …; chain 1 H11R: 0.000902 average fractional NGS count over selection days 2 and 3 (reads of this peptide / all reads for the bait, averaged over …. On the same count and under the same terms, as for chain 1 H11F, the figure is 0.00626 average fractional NGS count over selection days 2 and 3 (reads of this peptide / all reads for the bait, averaged over …; as for chain 1 H11D, 0.00024 average fractional NGS count over selection days 2 and 3 (reads of this peptide / all reads for the bait, averaged over …. With chain 1 H11Y, the screen value is 0.00946 average fractional NGS count over selection days 2 and 3 (reads of this peptide / all reads for the bait, averaged over …. On the same count and under the same terms, next, chain 1 H11G: 0.000565 average fractional NGS count over selection days 2 and 3 (reads of this peptide / all reads for the bait, averaged over ….

As to chain 1 H11S, the screen value is 0.000392 average fractional NGS count over selection days 2 and 3 (reads of this peptide / all reads for the bait, averaged over …. Same read-out and setting: as for chain 1 H11L, the figure is 0.00334 average fractional NGS count over selection days 2 and 3 (reads of this peptide / all reads for the bait, averaged over …; as for chain 1 H11W, 0.00259 average fractional NGS count over selection days 2 and 3 (reads of this peptide / all reads for the bait, averaged over …. In the case of chain 1 H11N, the screen value was 0.000176 average fractional NGS count over selection days 2 and 3 (reads of this peptide / all reads for the bait, averaged over …. On to chain 1 H11V, for which the screen value is 0.00167 average fractional NGS count over selection days 2 and 3 (reads of this peptide / all reads for the bait, averaged over ….

Turning to chain 1 H4F, the screen value is 0.000236 average fractional NGS count over selection days 2 and 3 (reads of this peptide / all reads for the bait, averaged over ….

Consider chain 1 H4I, for which the screen value is 0.000874 average fractional NGS count over selection days 2 and 3 (reads of this peptide / all reads for the bait, averaged over …. Still for that read-out and setting: as for chain 1 H4M, the figure is 0.000847 average fractional NGS count over selection days 2 and 3 (reads of this peptide / all reads for the bait, averaged over …. As for chain 1 H4T, the screen value was 0.002 average fractional NGS count over selection days 2 and 3 (reads of this peptide / all reads for the bait, averaged over ….

Consider chain 1 H4E, for which the screen value was 0.000591 average fractional NGS count over selection days 2 and 3 (reads of this peptide / all reads for the bait, averaged over …. The same measure, in the same setting: next, chain 1 H4Y: 0.000766 average fractional NGS count over selection days 2 and 3 (reads of this peptide / all reads for the bait, averaged over …. Turning to chain 1 H4P, the screen value was 0.000821 average fractional NGS count over selection days 2 and 3 (reads of this peptide / all reads for the bait, averaged over …. Still for that read-out and setting: next, chain 1 H4A: 0.000176 average fractional NGS count over selection days 2 and 3 (reads of this peptide / all reads for the bait, averaged over ….
